Tests used:
[1] = system: Neuro2a cells stably transfected with hyg-sa134 (SEAP-APP); experiment: Aβ production by Neuro2a cells stably transfected with hyg-sa134 (total Aβ in media, sandwich ELISA); format: cell-based, mouse
Protocol: Neuro2a (mouse neuroblastoma) stably transfected with hyg-sa134, a pcDNA3.1/Hygro plasmid (Invitrogen, CA) modified to express a fusion protein of secreted alkaline phosphatase (SEAP) and a fragment of APP consisting of the C-terminal 134 amino acids (“CAPP134”) (SEQ ID NO:10) were maintained in culture as described ([…]) in the presence of 400 μg/ml of hygromycin. SEQ ID NO: 11 is the DNA sequence of the entire hygsa134 vector, which was derived from the pcDNA3.1/Hygro vector by genetic manipulation to insert the DNA sequences for SEAP and CAPP134. The SEAP-CAPP cDNA insert from hyg-sa134 was also subcloned into an adenoviral vector using the Adeno Vator system (Qbiogene, Calif.). The DNA sequence for SEAP (corresponding to nucleotides 981-2441 of hyg-sa134) (SEQ ID NO: 9) is located 5′ to the DNA sequence (SEQ ID NO: 12) coding for CAPP134 (SEQ ID NO: 10).
(§1) SY5Y and hyg-sa134-Neuro2a cells were treated at 80% confluency (see below). Primary neural cultures from mouse embryos were allowed to grow for 6-12 days following plating and prior to viral infection and treatments.
About 5 μg/ml or about 10 μg/ml water-soluble cholesterol was added to cultures for 2 or 5 hours. Water soluble cholesterol (Sigma-Aldrich, MO) is a solution made of cholesterol balanced with cyclodextrin CDX (40 mg cholesterol per gr CDX). For comparison, cultures were treated with the equivalent amount of the resin alone, which leads to depletion of cholesterol in the cultures (Simons et al., Proc Natl Acad Sci USA. 95:6460-4 (1998)).
(§2) About 100 ng/ml or about 400 ng/ml leptin (Harbor-UCLA, CA), was added in cell culture medium for 2 or 5 h. Cells were approximately 80% confluent at the time of treatment. Peptide YY (3-36) (Phoenix Pharmaceuticals, Inc., CA), and CNTF (Sigma-Aldrich, Mo.) were added at about 25 μM or 150 μM for the same incubation periods. TOFA, etomoxir (Research Biochemicals International, MA) and cerulenin (Sigma-Aldrich, Mo.) were used as described below.
(§3) For the determination of Aβ peptide several methodologies also were used. SY5Y cells in culture were metabolically labeled with ^35S-[Met] as described (Figueiredo-Pereira et al. J Neurochem. 72:1417-22 (1999)), followed by immunoprecipitation, resolution of the immunoprecipitates on SDS-PAGE, autoradiography, and densitometric analysis of the autoradiogram. Neuro2a cells were stably transfected with hyg-sa134 (K. Sambamurti, S. Carolina Medical Center, SC) and Aβ40 (SEQ ID NO: 4) plus Aβ42 (SEQ ID NO: 5) plus Aβ43 (SEQ ID NO: 6) (Total Aβ) in the medium then was quantified by sandwich ELISAs developed with 4G8 and 6 ε10 monoclonal antibodies (Signet, Mass.) as described (Figueiredo-Pereira et al., J Neurochem. 72:1417-22 (1999)). Commercially available ELISA kits (KMI Diagnostics, MN) were used for the separate determination of Aβ40 (SEQ ID NO:4) and Aβ42/43 (SEQ ID NO:5/SEQ ID NO:6) in formic acid extracts of mice brains. Flotillin was detected using monoclonal anti-flotillin-1 antibodies (BD Biosciences, CA). Actin was detected using monoclonal anti-actin antibodies (Research Diagnostics, Inc, NJ).
Human (SYSY) or mouse neuroblastoma cell-lines (Neuro2a) commonly are used to study amyloid β metabolism in vitro. Neuro2a cells are stably transfected with hyg-sa134 (SEQ ID NO: 11), a plasmid driving the expression of a recombinant fusion protein containing the human C-terminal fragment of APP of about 134 amino acids, CAPP134 (SEQ ID NO: 10). Here, 5Y5Y or Neuro2a cultures were treated for 2 or 5 h with about 100 ng/ml or about 400 ng/ml leptin (FIG. 4a, 4b). Similarly, primary neurons from embryonic rat brain, infected with an adenovirus to direct the expression of CAPP134 (SEQ ID NO:10) also were treated according to the same regimen. […]

SY5Y cells = experiment: Aβ production by SY5Y cells; format: cell-based, human; details: total Aβ in conditioned media, 5 h; concentration (TOFA 200 μM, cerulenin 200 μM, etomoxir 40 μM, peptide YY (3-36) 25 μM, CNTF 25 μM, leptin 400 ng/ml); mean ± SEM; NS = non-significant
Source text: Cell cultures, Treatments, Antibodies and Immunoassays. SY5Y cells (human neuroblastoma) were maintained in culture as described (Johnsingh et al., FEBS Lett. 465:53-8 (2000)). Primary neural cultures were obtained from ε16 rat embryonic cortex, as described (Shimoda et al., 1992. Brain Res. 586:319-31 (1992)). These were either grown as mixed cultures (Johnsingh et al., FEBS Lett. 465:53-8 (2000)) or grown under conditions that favor the isolation and proliferation of astrocytes (Takeshima et al., J Neurosci. 14:4769-79 (1994)).
as §1, §2, §3
Human (SYSY) or mouse neuroblastoma cell-lines (Neuro2a) commonly are used to study amyloid β metabolism in vitro. Neuro2a cells are stably transfected with hyg-sa134 (SEQ ID NO: 11), a plasmid driving the expression of a recombinant fusion protein containing the human C-terminal fragment of APP of about 134 amino acids, CAPP134 (SEQ ID NO: 10). Here, 5Y5Y or Neuro2a cultures were treated for 2 or 5 h with about 100 ng/ml or about 400 ng/ml leptin (FIG. 4a, 4b). Similarly, primary neurons from embryonic rat brain, infected with an adenovirus to direct the expression of CAPP134 (SEQ ID NO:10) also were treated according to the same regimen.

B1: Leptin: peptide hormone controlling adaptive metabolic mechanisms to energy availability; leptin (Harbor-UCLA) in vitro, recombinant murine leptin in mice (protein, UniProt P41160 22-167, looked up)
Leptin: VPIQKVQDDTKTLIKTIVTRINDISHTQSVSAKQRVTGLDFIPGLHPILSLSKMDQTLAVYQQVLTSLPSQNVLQIANDLENLRDLLHLLAFSKSCSLPQTSGLQKPESLDGVLEASLYSTEVVALSRLQGSLQDILQQLDVSPEC
For B1, the “Aβ production / levels of Aβ in the media (in words)” value ([1]; 2 or 5 h treatment) was “dose- and time-dependent decrease”, the “levels of Aβ detected in the media (percentage of corresponding controls), leptin co-administered with cholesterol” value ([1]; 5 h, highest concentrations of leptin, co-administered with cholesterol, FIG. 4b) was 150±4% and the “Neuro2a/SEAP-APP Aβ(% control)” value ([1]; total Aβ in conditioned media, 5 h, concentration (TOFA 200 μM, cerulenin 200 μM, etomoxir 40 μM, peptide YY (3-36) 25 μM, CNTF 25 μM, leptin 400 ng/ml), mean ± SEM, 4 experiments, NS = non-significant) was 56 ± 5 % control. The “SY5Y Aβ (% control)” value (SY5Y cells) was 38 ± 7 % control.
